According to publication PMC4569848:

Legend:
β-arrestin-1-R7-F2Y = β-arrestin-1-R7-F2Y (UniProt P17870); test: 19F-NMR
β-arrestin-1–Y63-F2Y = β-arrestin-1–Y63-F2Y (UniProt P17870); test: 19F-NMR
Chain of β-arrestin-1–Y63-F2Y (P17870 whole entry, stated change not applied): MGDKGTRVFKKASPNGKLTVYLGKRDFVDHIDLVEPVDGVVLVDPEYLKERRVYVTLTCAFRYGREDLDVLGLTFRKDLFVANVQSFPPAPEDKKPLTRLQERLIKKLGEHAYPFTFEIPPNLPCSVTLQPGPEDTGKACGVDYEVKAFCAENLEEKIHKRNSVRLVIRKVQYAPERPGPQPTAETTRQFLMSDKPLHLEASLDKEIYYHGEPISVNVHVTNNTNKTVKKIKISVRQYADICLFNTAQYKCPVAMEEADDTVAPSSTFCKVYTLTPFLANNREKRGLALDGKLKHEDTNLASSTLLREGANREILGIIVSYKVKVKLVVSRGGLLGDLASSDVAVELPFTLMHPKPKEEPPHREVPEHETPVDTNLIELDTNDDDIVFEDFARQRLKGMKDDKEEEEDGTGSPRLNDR

Chain of β-arrestin-1-R7-F2Y (P17870 other isoform, or with tags, fused parts or gaps R7-F2Y): as the sequence (P17870 whole entry, stated change not applied) above, with R7Y counted along it

Row | other: 19F chemical shift change (β-arrestin-1-R7-F2Y) | other: 19F chemical shift change (β-arrestin-1–Y63-F2Y) | Substance
1 | 0.09 p.p.m. | 0.02 p.p.m. | GRK6pp (GRK6-phosphorylated β2AR C-tail) pS355S
2 | 0.01 p.p.m. | 0.89 p.p.m. | GRK6pp (GRK6-phosphorylated β2AR C-tail) E369A
